This is an account of results in PMC5551578 (The Journal of Experimental Medicine, 2017).

Numbering of substitutions follows the chain as printed.

Sequences and labels used below:
B1: H1-Ab16 (antibody, V domains shown)
VH: EVQLVESGAEVKKPGSSVKVSCTASGGAFNSHTISWLRQTPGQGLEWMGRIIPILGMANYAQKFHGRVTITADISTNTAYMELSSLRSEDTAVYSCAGGTSRWFGDVEYWGQGSLVTVSS
VL: EIVLTQSPLSLPVTLGQPASISCRSSQSLVFSDGNTYLSWFHQRPGQAPRRLIYKVSDRDSGVPDRFSGSGSGTDFTLKISRVEAEDVGVYYCMQGSHWPPSFGPGTKVEIK
B2: H1-Ab26 (antibody, V domains shown)
VH: EVQLVQSGGGLVQPGSSLRLSCAASGFTFSNFAMSWVRQAPGKGLEWVSTINAGSGSKDYANSVKGRFTISRDNTKNTLYLQMKSLRAEDTAVYYCAKDTGHTIFGVVRPYYNGMDVWGQGTTVTVSS
VL: DNQMTQSPLSLPVTLGQPASISCRSSQSLVYSDGNTYLNWFQQRPGQSPRRLIYKVSNRDSGVPDRFSGSGSGTDFTLKISRVEAEDVGVYYCMQGTHPYTFGQGTKVEIK
B3: H1-Ab27 (antibody, V domains shown)
VH: B2 VH
VL: EIVMTQSPGTLSLSPGERATLSCRASQSVSSSYLAWYQQKPGQAPRLLIYGASSRATGIPDRFSGSGSGTDFTLTITRLEPEDFAVYYCQQYGGSPMYTFGQGTKVEIK
B4: H1-Ab9 (antibody, V domains shown)
VH: EVQLVESGAEVKKPGAPVKVSCKASGYTFTRYYIHWVRQAPGQGLEWMGWINPDSGDTKCAQRFQGRVTMTRDTSVSTAYMELRRLGSDDTALYYCARIQLRSDGFDLWGQGTLVTVSS
VL: QSALTQPASVSGSPGQSITISCTGTSSDIGSYKFVSWYQQHPGKAPKVMIYEVTQRPSGVSNRFSGSKSGNTASLTISGLQAEDEADYYCCSYAGSSFWVFGGGTTLTVP
B5: H1-Ab18 (antibody, V domains shown)
VH: EVQLVESGGGLLKPGGSLRLSCAASGFTFNNAWMSWVRQPPGKGLEWVGRIKSESDDETPDYAAPVKGRFDISRDDSKNMLYLQMSSLKTEDTAVYYCATDHSSHYYDRPDYWGQGTLVTVSS
VL: QSVLTQSPSASASLGASVKLTCILSSGHSDYAIAWHQQQPEKGPRYLMKLNIDGSHSKGDGIPDRFSGSTSGAERYLTISSLQSEDEADYYCQTWDTGIHVFGGGTRLTVL
B6: H1-Ab38 (antibody, V domains shown)
VH: EVQLVESGGGVVQPGRSLRLSCAASGFTFSSNAMHWVRQAPGKGLEWVAVISSDGSSKYYADSVKGRFTISRDNSKNTLFLQMNSLRADDTAIYYCARRYDGFDYWGQGSLVTVSS
VL: QSVLTQPASVSGSPGQSITISCTGTSSDVGSYNLVSWYQQHPGKAPKLMIYEVNKRPSGVSNRFSGSKSGNTASLTISGLQAEDEADYHCCSYAGSYTYVFGGGTKLTVL
B7: H1-Ab4 (antibody, V domains shown)
VH: EVQLVESGGALRKPGASVRVSCRSSGYRFTSNGISWVRQAPGRGLEWMGWISANSGNTFYAQKFQGRVTMTTDTSASTAYVELRRLRPDDTAMYYCARDVHYRFDSWGQGTLVTVSS
VL: QSVLTQPPSASGSPGQSVAISCTGSSSDVGGYDWVSWYQQYPGKGPKLIIYEVNKRPPGVPDRFSGSKSGNTASLTVSGLQTEDEADYYCSSYAGGSRVFGGGTKLTVL
B8: H1-Ab53 (antibody, V domains shown)
VH: EVQLVESGLRLVKPSETLSVTCTVSGGSMSTTSYYWGWIRQPPGKALEWIGSIYYDGNSYYKPSLRSRFTMLVDTSKNQFSLKLTSVTAADTAVYYCARMSYMDYDFSTGYWNWFDPWGQGTLVTVSS
VL: QSVLTQPASVSGSPGQSITISCTGTRRDVGSYRLVSWYQHHPGKAPKLMIYEGTKRPSGVSDRFSGSKSGNTASIIISGFQAEDEADYYCCSYAGSSTWVFGGGTRVTVL
B9: H1-Ab51 (antibody, V domains shown)
VH: EVQLVESGPGLVKPSETLSLTCTVSGGSISSNTYYWGWIRQPPGKGLEWIETIYYSGSTYYNPSLKSRVTISVDTSKNQFSLKLSSVTAADSAVYYCARSYCGGGCNFDAFDIWGQGTVVTVSS
VL: QSVLTQPASVSGSPGQSITISCTGSSSDVGGYNYVSWYQQHPGKAPKLMIFDVSNRPSGVSNRFSGSKSGNTASLTISGLQAEDEADYYCSSYTSNITLVFGGGTKLTVL
B10: H1-Ab33 (antibody, V domains shown)
VH: EVQLVESGGGLVQPGGSLRLSCAASGFTFSSYAMSWVRQAPGKGLEWVSGINAGGGSTFYADSVKGRFTISRGNSKNTLYLQMHSLRAEDTAIYYCAKDQGNAIFGLVIPSYYFDYWGQGTLVTVSS
VL: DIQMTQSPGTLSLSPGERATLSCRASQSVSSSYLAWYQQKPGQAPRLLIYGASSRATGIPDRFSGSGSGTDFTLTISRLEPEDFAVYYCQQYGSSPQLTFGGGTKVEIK
B11: H1-Ab37 (antibody, V domains shown)
VH: B10 VH with E1L, G73D
VL: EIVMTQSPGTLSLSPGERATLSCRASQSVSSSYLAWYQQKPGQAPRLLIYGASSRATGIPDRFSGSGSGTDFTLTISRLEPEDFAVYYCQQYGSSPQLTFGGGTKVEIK
B12: H1-Ab8 (antibody, V domains shown)
VH: EVQLVQSGAEVKKPGASVKVSCKASGYTFADYYIHWVRQAPGQGLEWMGWINPNSGDTNYAQKFQGRVTMTRDTSISTGDMELSRLRSDDTAVYYCARANRGGYFAWAFFDFWGQGTLVTVSS
VL: EIVLTQSPGTLSLSPGERATLSCRASQSVSSRNLAWYQQKPGQAPRLLIYGASSRATGIPDRFSGSGSGTDFILSISRLEPEDFAVYYCQQYGSSPLTFGGGTKVEIK
B13: H1-Ab23 (antibody, V domains shown)
VH: EVQLVESGGGLVKPGGSLRLSCAASGFTFSSYSMHWVRQAPGKGLEWISSISSTGNYIYYADSVKGRFTISRDNARNSLYAQLNSLRAEDTAVYYCATGVTSSYGGHPGYFDSWGQGTLVTVSS
VL: DIRMTQSPSSLSASVGDRVTITCQASQDISKYLNWYQQKPGKAPKVLIYDASNLETGVPSRFSGSRSGTDFTFTISRLQPEDIGTYYCQQYDDPFLTFGGGTKVEIK
B14: H1-Ab61 (antibody, V domains shown)
VH: EVQLLESGAEVKKPGESLKISCKTSGYTFPRYWVGWVRQMPGKGLEWMGFIYPGDATTRYSPSFQGQVTISADKSINTAYLHWSSLKASDTAVYFCARHPGDKSFYYYGLDVWGQGTTVTVSS
VL: AIRMTQSPSTLSASVGDRVTITCRASQSIRSWLAWYQQKPGKAPKLLISKASSLQSGVPSRFSGTGSGTEFTLTISSLQPDDFATYYCQQYNSDSITFGQGTRLEIK
B15: H1-Ab1 (antibody, V domains shown)
VH: EVQLVQSGAEVKKPGASVKVSCKASGYIFTSYGISWVRLAPGQGLEWMGWISGYNSNTNYAQKFQGRVTVTADTSTSTAYMELRSLRSDDTAVYYCARDRAHILTGYHFDCWGQGTLVTVSS
VL: DIQMTQSPLSLPVTLGQPASISCRSSQSLVYIDGNTYLNWFQQRPGQSPRRLIYKVSNRDSGVPDRFSGSGSGTDFTLKISSVEAEDVGVYYCMQGTHWPPYTFGQGTKVEIK
B16: H1-Ab3 (antibody, V domains shown)
VH: B15 VH with Q6E, K13R, I28T, L39Q, G53A, S56G, F64L, T69I, V70M, A72T
VL: DIVMTQSPGTLSLSPGERATLSCGASQSVTSSYLAWYQQKPGQAPRLLIYDAPSRATGIPDRFSGSGSGTDFTLTISRLEPEDFAVYYCQQYGSSHVITFGQGTDWRLN
B17: H1-Ab2 (antibody, V domains shown)
VH: B15 VH with K13R, I28T, L39Q, G53A, S56G, F64L, T69I, V70M, A72T, C111Y
VL: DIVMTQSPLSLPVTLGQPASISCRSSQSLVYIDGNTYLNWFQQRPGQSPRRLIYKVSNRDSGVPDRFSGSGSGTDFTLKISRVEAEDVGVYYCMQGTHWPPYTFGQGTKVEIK
B18: H1-Ab15 (antibody, V domains shown)
VH: EVQLVESGAEVKKPGSSVTVSCKASGNIFNSYTVSWVRQVPGQGLEWVARVIPTIGMSNYAPKLQGRVTVTADRSTNTAYMEVTSLRSEDTAVYYCATGPSYYYDANGSPTDYWGQGTLVTVSS
VL: DIQMTQSSATLSVSPGETATLSCRASQSVSSHLVWYQQKPGQAPRLIIYGASTRATGIPVRFSGSRSGTEFTLTISSLQSEDFAIYYCQQYNNWPWTFGQGTKVEIK
B19: H1-Ab11 (antibody, V domains shown)
VH: QVQLVQSGAEVKKPGSSVKVSCKASGVTFDTYAFSWVRQAPGQGLEWMGGISPIFTTTNYAQTFQGRVTITADKSTSTAYMELSSLISEDTAVYYCAKGGPTTGTPYYVFGLDVWGQGTMVTVSF
VL: DIVMTQSPLSSPVTLGQPASISCRSSQSLVHSDGNTYLSWLHQRPGQPPRLLIYKISNRFSGVPDRFTGSGAGTDFTLKISRVEAEDVGVYYCMQATQFQTFGQGTKVEIK
B20: H7-Ab1 (antibody, V domains shown)
VH: EVQLVQSGAEVKKPGASVKVSCKTSYAMHWVRQAPGQRLEWMGWINAGNGYTKYSPKFQGRVTFTWDTSASTAYMELNSLRSEDTAVYYCAHGSGSYLNWFDPWGQGTLVTVSS
VL: QSVLTQPASVSGSPGQSITISCTGTSSDVGGYNYVSWYQQHPGKAPKLMIYEVSNRPSGVSNRFSGSKSGNTASLTISGLQAEDEVDYYCTSYTSSSTLVAFGRGTKLTVL
B21: H7-Ab3 (antibody, V domains shown)
VH: EVQLVESGAEVKKPGSSVKVSCKTSGGTFNIYAINWVRQAPGQGLEWMGMIIPIFGSPKTAREFQDRLTIDADTSTSTAYMELSNLTSEDTATYFCSRVADDYDFWSPNKFWGQGTLVTVSS
VL: DIQLTQSPSTLSASVGDTVTITCRASQSVNSWLAWYQQKPGKAPKLLIYKTFNLETGVPSRFSATGSGTEFTLTISRLQPDDFATYYCQQYNSNSHFGQGTKVEIK
B22: H7-Ab4 (antibody, V domains shown)
VH: EVQLVESGAEVKKPGSSVKVSCKASGGTFSSHGINWVRQAPGQRLEWMGGINPISGTPHYAQKFQGRVTITADESTTTSYMELSSLRSEDTAVYYCARIHRAGLEANYWGQGTLVTVSS
VL: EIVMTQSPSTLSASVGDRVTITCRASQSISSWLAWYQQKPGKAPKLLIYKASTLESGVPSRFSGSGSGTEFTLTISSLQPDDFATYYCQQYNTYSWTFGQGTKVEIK
B23: H7-Ab5 (antibody, V domains shown)
VH: EVQLVESGAEMRKPGSSVKVSCKASGGTFNTYGISWVRQAPGQGLEWMGGIIPMFGTENHAQKFQGRVTITADKSTSIAYMELSSLTSEDTAVYYCARAPVVGSRNVYYYHGLDVWGQGTTVTVSS
VL: SYELTQPPSVSVSPGQTARITCSGDALPKRYAFWYQQKPGQAPVLVIYKDTERPSGIPERFSGSRSGTTVTLTISGVQAEDEGDYYCQSADSSDPCLFGGGTKLTVL

The first test has as its target H1N1 HA (A/California/04/2009) (Influenza A virus A/California/04/2009 …, UniProt C3W5S1, strain).
In the case of B1, the binding result is “binds”.

Take B2: the binding result was “binds”.

Turning to B3, the binding result is reported as “binds”.

Take B4: the binding result is listed as “binds”.

Turning to B5, the binding result is “binds”.

For B6, the binding result was “binds”.

Consider B7, for which the binding result was “binds”.

In the case of B8, the binding result is “binds”.

In the case of B9, the binding result is “binds”.

As for B10, the binding result is on record as “binds”.

Take B11: the binding result was “binds”.

As to B12, the binding result is “binds”.

Turning to B13, the binding result is “binds”.

For the molecule B14, the binding result is on record as “binds”.

As to B15, the binding result is listed as “binds”.

With B16, the binding result is “binds”.

B17: the binding result was “binds”.

As for B18, the binding result is “binds”.

On to B19, for which the binding result is “binds”.

The target of the next test is H7N9 HA (A/Shanghai/1/2013) (Influenza A virus A/Shanghai/1/2013 …, strain).
Regarding B20, the binding result is given as “binds”.

Turning to B21, the binding result was “binds”.

Take B22: the binding result is recorded as “binds”.

On to B23, for which the binding result is recorded as “binds”.
